Data on five substances can be found in patent US20170340747A1, “PROCESS FOR PRODUCING IRON (III) CASEIN N-ACETYL-ASPARTYLATED COMPLEXES AND USE THEREOF IN PHARMACEUTICAL COMPOSITIONS” (priority 2014, published 2017).

Series [1] concerns patients with iron deficiency anaemia. Conditions: cited from earlier work.
The test system of another series is dogs. Conditions: complex containing 5% iron; cited from earlier work.
The subject of a further series is rats. Conditions: complex containing 5% iron; cited from earlier work.
The nature of series [2]: Solubility of the dried iron (III) casein N-acetyl-L-aspartylated complex. The class given is physicochemical. On the procedure:
The moist pure product obtained in the previous stage is dried under vacuum, at a temperature increasing from 60° C. to 70° C., for an overall period of 24 hours. After the desiccation process, 6.5 g of pure iron (III) casein N-acetyl-L-aspartylated complex are obtained, with a water content <5 wt % (Karl Fisher), having the following chemical and physicochemical characteristics:
The moist pure product obtained in the previous stage is dried under vacuum, at a temperature increasing from 60° C. to 70° C., for an overall period of 24 hours. After the desiccation process, 6.6 g of pure iron (III) casein: N-acetyl-L-aspartylated complex are obtained, with a water content<5 wt % (Karl Fisher), having the following chemical and physicochemical characteristics:
The moist pure product obtained in the previous stage is dried under vacuum, at a temperature increasing from 60° C. to 70° C., for an overall period of 24 hours. After the desiccation process, 6.4 g of pure iron (III) casein N-acetyl-L-aspartylated complex are obtained, with a water content<5 wt % (Karl Fisher), having the following chemical and physicochemical characteristics: […]

Regarding “iron-acetyl-aspartylated casein [Fe-ASP]”, the “Changes in clinical and haematological profiles” value in series [1] (controlled clinical trials, compared with iron protein succinylate (IPS)) is reported as “virtually identical to those seen with iron protein succinylate (IPS)”. In addition, in series [1] (human, in vivo), the Safety result is reported as “No safety considerations were raised”. For the same substance, in series [1] (open clinical trials, all categories of patients with iron deficiency anaemia), the “Clinical and haematological parameters after treatment” value is “highly significant improvements”.
On to “iron-protein succinylate [iron succinyl casein complex]”, for which the Gastrointestinal tolerability entry in the series with dogs and in the series with rats was “better gastrointestinal tolerability” in each case.
As to “iron (III) casein: N-acetyl-L-aspartylated complex [Example 2]”, the Solubility entry in series [2] is “Soluble in NaOH pH = 8”.
Take “iron (III) casein N-acetyl-L-aspartylated complex [Example 3]”: in series [2], the Solubility result is reported as “Soluble in NaOH pH = 8”.
For the substance ferro-N-acetyl-L-aspartylated casein, the “Solubility at alkaline pH values” in series [2] is recorded as “completely soluble at alkaline pH values”.
